Test results as given in patent publication US20060121042A1 (AstraZeneca / MedImmune, published 2006).

T1: mEphA7 (mouse, UniProt Q61772)
T1 construct: part of an Fc fusion; also called rmuEphA7-Fc
T1 sequence (receptor-Fc fusion, looked up): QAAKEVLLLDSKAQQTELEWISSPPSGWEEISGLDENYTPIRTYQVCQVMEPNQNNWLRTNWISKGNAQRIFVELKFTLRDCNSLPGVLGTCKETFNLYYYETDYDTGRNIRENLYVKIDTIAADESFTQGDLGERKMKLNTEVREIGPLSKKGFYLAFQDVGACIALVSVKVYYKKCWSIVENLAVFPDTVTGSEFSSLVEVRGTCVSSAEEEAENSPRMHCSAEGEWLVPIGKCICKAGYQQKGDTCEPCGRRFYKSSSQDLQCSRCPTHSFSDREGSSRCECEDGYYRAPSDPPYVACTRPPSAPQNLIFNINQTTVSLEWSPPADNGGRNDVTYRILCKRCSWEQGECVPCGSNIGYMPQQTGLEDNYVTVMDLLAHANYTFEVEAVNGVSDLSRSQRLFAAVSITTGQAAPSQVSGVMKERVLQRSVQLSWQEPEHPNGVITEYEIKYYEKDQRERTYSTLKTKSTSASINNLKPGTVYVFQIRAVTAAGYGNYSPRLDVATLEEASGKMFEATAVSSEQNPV

T2: r murine EphA7 (mouse, UniProt Q61772)
T2 construct: recombinant Fc fusion (R&D Systems); also called rmuEphA7-Fc; mEphA7
T2 sequence (receptor-Fc fusion, looked up): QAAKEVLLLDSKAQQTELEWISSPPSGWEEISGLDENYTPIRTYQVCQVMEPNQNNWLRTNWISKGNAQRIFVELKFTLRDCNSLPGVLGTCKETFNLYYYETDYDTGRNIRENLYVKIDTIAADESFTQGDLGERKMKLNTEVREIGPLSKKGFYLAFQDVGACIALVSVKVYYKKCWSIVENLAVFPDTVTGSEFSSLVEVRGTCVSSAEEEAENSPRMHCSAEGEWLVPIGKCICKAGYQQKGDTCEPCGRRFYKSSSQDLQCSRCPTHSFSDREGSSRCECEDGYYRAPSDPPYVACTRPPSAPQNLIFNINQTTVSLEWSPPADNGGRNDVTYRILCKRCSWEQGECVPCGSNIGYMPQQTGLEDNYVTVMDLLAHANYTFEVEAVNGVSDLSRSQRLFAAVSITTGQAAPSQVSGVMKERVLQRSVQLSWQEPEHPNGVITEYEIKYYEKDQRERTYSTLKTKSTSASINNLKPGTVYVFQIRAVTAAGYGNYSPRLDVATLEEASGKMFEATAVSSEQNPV

T3: rmEph B2 (mouse, UniProt P54763)
T3 sequence (receptor, looked up): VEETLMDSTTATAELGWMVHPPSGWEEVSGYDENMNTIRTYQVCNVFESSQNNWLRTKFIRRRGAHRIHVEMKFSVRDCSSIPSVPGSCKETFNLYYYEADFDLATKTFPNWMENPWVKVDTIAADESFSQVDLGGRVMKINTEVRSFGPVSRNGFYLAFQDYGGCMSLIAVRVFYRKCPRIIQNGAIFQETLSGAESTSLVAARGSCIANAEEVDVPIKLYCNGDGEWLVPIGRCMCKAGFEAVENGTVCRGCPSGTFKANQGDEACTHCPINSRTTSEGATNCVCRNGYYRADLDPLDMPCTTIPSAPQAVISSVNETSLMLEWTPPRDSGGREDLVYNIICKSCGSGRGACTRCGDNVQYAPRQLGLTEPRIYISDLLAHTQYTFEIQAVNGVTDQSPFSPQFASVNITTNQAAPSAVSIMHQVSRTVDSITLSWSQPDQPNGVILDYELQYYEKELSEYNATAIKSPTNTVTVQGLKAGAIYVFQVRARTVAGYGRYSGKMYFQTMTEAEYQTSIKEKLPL

T4: rmEph B3 (mouse, UniProt P54754)
T4 sequence (receptor, looked up): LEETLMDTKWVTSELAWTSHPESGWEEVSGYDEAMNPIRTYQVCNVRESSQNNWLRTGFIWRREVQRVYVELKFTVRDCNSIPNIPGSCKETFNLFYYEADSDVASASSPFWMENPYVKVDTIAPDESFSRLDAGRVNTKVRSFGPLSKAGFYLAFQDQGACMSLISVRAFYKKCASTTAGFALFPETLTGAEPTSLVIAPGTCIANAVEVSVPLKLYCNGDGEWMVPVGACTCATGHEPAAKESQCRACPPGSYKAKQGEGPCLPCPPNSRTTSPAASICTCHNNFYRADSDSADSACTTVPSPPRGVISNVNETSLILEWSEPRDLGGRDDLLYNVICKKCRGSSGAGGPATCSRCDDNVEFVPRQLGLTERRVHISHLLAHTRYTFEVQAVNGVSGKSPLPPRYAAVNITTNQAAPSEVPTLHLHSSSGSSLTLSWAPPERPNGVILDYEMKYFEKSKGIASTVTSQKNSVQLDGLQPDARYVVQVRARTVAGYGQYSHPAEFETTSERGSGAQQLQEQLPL

T5: rrEphB1 (rat, UniProt P09759)
T5 sequence (receptor, looked up): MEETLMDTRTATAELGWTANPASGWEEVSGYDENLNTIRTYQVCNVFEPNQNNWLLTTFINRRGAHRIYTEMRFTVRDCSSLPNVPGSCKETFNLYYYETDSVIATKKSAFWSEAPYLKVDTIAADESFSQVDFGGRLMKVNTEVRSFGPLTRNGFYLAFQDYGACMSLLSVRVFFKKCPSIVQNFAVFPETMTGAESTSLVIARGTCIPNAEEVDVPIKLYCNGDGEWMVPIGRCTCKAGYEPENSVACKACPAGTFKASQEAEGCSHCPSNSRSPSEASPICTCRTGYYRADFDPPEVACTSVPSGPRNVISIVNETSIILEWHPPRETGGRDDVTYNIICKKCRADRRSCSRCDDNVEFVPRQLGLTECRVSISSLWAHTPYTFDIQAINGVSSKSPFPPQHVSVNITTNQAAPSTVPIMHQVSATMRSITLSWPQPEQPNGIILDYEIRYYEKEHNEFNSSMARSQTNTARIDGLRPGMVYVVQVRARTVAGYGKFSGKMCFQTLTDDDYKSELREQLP

T6: mEph A7 (mouse, UniProt Q61772)
T6 sequence (receptor, looked up): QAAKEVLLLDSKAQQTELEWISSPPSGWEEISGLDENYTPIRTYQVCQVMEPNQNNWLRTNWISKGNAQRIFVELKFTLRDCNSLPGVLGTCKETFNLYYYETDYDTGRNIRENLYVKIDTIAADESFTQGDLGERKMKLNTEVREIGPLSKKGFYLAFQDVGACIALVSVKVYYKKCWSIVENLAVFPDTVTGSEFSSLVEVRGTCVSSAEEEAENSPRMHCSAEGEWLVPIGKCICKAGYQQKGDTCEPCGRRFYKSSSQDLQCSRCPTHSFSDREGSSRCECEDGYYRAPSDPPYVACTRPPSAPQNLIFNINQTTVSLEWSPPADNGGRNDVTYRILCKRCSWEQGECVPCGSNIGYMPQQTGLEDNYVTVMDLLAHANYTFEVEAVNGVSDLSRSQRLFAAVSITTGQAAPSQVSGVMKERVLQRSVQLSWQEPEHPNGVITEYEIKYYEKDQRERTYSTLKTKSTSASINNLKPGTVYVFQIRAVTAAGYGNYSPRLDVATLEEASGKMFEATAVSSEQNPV

T7: mEph A3 (mouse, UniProt P29319)
T7 sequence (receptor, looked up): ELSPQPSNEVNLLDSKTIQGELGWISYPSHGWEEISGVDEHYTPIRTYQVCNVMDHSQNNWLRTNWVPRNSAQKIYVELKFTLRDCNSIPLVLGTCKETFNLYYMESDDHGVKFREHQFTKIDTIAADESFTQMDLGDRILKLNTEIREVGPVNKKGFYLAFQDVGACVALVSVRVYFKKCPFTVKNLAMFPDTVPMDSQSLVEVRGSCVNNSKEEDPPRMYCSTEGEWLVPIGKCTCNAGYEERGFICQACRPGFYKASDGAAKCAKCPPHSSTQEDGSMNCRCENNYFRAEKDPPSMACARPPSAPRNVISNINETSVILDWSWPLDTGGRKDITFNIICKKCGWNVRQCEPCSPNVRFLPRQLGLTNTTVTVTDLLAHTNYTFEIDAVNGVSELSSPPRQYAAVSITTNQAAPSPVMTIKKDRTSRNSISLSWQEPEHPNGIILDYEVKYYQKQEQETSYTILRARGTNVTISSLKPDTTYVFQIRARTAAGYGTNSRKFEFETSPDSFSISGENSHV


Tests used:
mEphA4 = target: T8, mEphA4 (mouse, UniProt Q03137); experiment: ELISA, receptor coated on the plate, purified IgG, anti-human kappa-HRP
T8 construct: part of an Fc fusion; also called rmuEphA4-Fc
T8 sequence (Q03137 20-547 limits assumed): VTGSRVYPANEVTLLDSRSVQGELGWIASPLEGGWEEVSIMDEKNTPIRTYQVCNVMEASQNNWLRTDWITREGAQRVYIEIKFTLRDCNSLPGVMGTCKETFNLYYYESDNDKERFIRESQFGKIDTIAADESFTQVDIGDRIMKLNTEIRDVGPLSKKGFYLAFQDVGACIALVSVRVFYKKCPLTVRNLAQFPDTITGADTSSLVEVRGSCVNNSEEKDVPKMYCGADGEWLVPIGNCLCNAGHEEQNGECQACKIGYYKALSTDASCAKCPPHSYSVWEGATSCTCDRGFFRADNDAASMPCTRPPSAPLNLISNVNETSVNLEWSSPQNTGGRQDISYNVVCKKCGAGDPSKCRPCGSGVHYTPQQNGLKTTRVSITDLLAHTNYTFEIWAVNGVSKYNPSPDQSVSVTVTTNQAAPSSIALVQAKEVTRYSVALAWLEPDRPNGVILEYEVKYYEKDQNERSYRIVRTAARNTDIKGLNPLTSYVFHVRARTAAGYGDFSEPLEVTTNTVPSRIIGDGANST

mEphA7 = target: T1, mEphA7; experiment: as above
r murine EphA7 = target: T2, r murine EphA7; experiment: activity ELISA, IgG on coated antigen
r murine EphA4 = target: T9, r murine EphA4 (mouse, UniProt Q03137); experiment: activity ELISA, IgG on coated antigen
T9 construct: recombinant Fc fusion (R&D Systems); also called rmuEphA4-Fc; mEphA4
T9 sequence (Q03137 20-547 limits assumed): as above

[1] = target: T10, Human EphA4-Fc fusion protein (human, UniProt P54764 20-547); experiment: BIAcore, IgG immobilized on the sensor chip, EphA4-Fc as analyte; koff and KD printed as ***, comment: off-rate below LOD
T10 construct: not shown: Fc portion of a human IgG1
T10 sequence (P54764 20-547): as the sequence (Q03137 20-547 limits assumed) above, with A59P, S121N, G124V, Q250R, N251S, S270T, R378K, S406N counted along it
Protocol: FIG. 15A-15B. […] Binding affinities were measured using the BIAcore assay. […] Variant kinetic measurements for human EphA4 and were obtained using BIAcore with immobilized variant antibodies and human EphA4-Fc and EphA4-His as analytes.

rmEph B2 = target: T3, rmEph B2; experiment: ELISA
rmEph B3 = target: T4, rmEph B3; experiment: ELISA
rrEphB1 = target: T5, rrEphB1; experiment: ELISA
mEph A7 = target: T6, mEph A7; experiment: ELISA
mEph A3 = target: T7, mEph A3; experiment: ELISA
mEph A4 = mEph A4 (mouse, UniProt Q03137); experiment: ELISA
Chain of mEph A4 (Q03137 20-547 limits assumed): as the sequence (Q03137 20-547 limits assumed) above

[2] = target: T11, human EphA4 (construct not given) (human, UniProt P54764 20-547, limits assumed); experiment: ELISA
T11 construct: also called EphA4 receptor
T11 sequence (P54764 20-547 limits assumed): as the sequence (Q03137 20-547 limits assumed) above, with A59P, S121N, G124V, Q250R, N251S, S270T, R378K, S406N counted along it
For ELISA O.D. value in this document: test concentration or dose not given here.

| Binder | binding result (mEphA4) | binding result (mEphA7) | binding result (r murine EphA7) | binding result (r murine EphA4) | kon [1] | ELISA O.D. value (rmEph B2) | ELISA O.D. value (rmEph B3) | ELISA O.D. value (rrEphB1) | ELISA O.D. value (mEph A7) | ELISA O.D. value (mEph A3) | ELISA O.D. value (mEph A4) | ELISA O.D. value [2] |
| --- | --- | --- | --- | --- | --- | --- | --- | --- | --- | --- | --- | --- |
| 3C6 IgG1 (affinity optimized combinatorial variant of mAb GEA44 in human IgG1 format) (antibody, V domains shown) VH: QVQLLQSGAEVKKPGASVKVPCKASGYTFTSRAMSWVRQAPGQGLEWMGWINTNTGNPTYAQGFTGRFVFSLDTSVSTAYLQISSLKAEDTAVYYCARVRLTVYGDGMDVWGQGTLVTVSS VL: EIVLTQSPATLSVSPGERATLSCRASQSVSSNPPWYQQKPGQAPRLLIYGASTRATGIPDRFSASGSGTDFTLTISRVEPEDFAVYYCQQYGSSWTFGQGTKVEIK | binds | binds | binds | binds | 464000 M⁻¹ s⁻¹ |  |  |  |  |  |  |  |
| GEA10-C12 (antibody, V domains shown) VH: QVQLQESGPGLVKPSGTLSLTCAVSGGSISSSNWWSWVRQPPGKGLEWIGEIYHSGSTNYNPSLKSRVTISVDKSKNQFSLKLSSVTAADTAVYYCARGGIAAAGYWGLGYNWFDPWGQGTLVTVSS VL: QSVLTQPPSVSGAPGQRVTISCTGSSSNIGAGYDVHWYQQLPGTAPKLLIYGNSNRPSGVPDRFSGSKSGTSASLAITGLQAEDEADYYCQSYDNSLSGSVVFGGGTKLTVL |  |  |  |  |  | 0.264 | 0.377 | 0.823 | 0.132 | 0.116 | 0.253 | 0.267 |
